In CN101896199A:

Legend:
[1] = molecular target: HBV表面抗原 (hepatitis B virus surface antigen) (乙型肝炎病毒(HBV)); assay: ELISA titre (method of Shin YW et al. 2007); formulation after 6 months, 25℃, 60% R.H.
[2] = molecular target: HBV表面抗原 (hepatitis B virus surface antigen) (乙型肝炎病毒(HBV)); assay: ELISA titre (method of Shin YW et al. 2007); formulation after 3 months
[3] = molecular target: HBV表面抗原 (hepatitis B virus surface antigen) (乙型肝炎病毒(HBV)); assay: ELISA titre (method of Shin YW et al. 2007); formulation after 3 months, 25℃, 60% R.H.
[4] = molecular target: HBV表面抗原 (hepatitis B virus surface antigen) (乙型肝炎病毒(HBV)); assay: ELISA titre (method of Shin YW et al. 2007); formulation at 0 weeks, 25℃, 60% R.H.

- 滴度(IU/mg) [1]: > 2000 IU/mg
- 滴度(IU/mg) [2]: > 2000 IU/mg
- 滴度(IU/mg) [3]: > 2000 IU/mg
- 滴度(IU/mg) [4]: > 2000 IU/mg
Substance: Hepabig基因 (从细胞系HBAb-49, 登录号KCLRF-BP-00054, 产生的针对HBV表面抗原的人抗体) (antibody)
